Measurements as given in patent publication US20180335433A1, “COMPOSITIONS TARGETING PKC-THETA AND USES AND METHODS OF TREATING PKC-THETA PATHOLOGIES, ADVERSE IMMUNE RESPONSES AND DISEASES” (La Jolla Institute for Allergy and Immunology, priority 2011, published 2018).

Legend:
[1] = test system: CD28 response element (RE/AP) reporter gene; assay: RE/AP luciferase reporter assay in MCC-specific T hybridoma cells; assay type: cell-based
Protocol: (FIG. 6A) OT-II CD4^+ T cells were infected with retrovirus expressing Myc-tagged V3 domain, V3 mutated at P330/1/4/6A (V3-4PA), or PR motif-deleted V3 (V3-ΔPR). Infected cells (green) were harvested, stimulated, and fixed. Conjugates were stained with anti-Myc plus a secondary Alexa 555-coupled antibody (orange), and anti-PKCθ plus a secondary Alexa 647-coupled antibody (red). Cells were analyzed as in FIG. 1A. (FIG. 6B) Quantitative analysis of the results shown in (FIG. 6A) from 30-50 T-APC conjugates. ** p<0.05. (FIG. 6C) MCC-specific T hybridoma cells were cotransfected with indicated vector, together with RE/AP-Luc and β-Gal reporter plasmids. Cells were stimulated and analyzed as in FIG. 1C. […] Cytokine-producing cells were analyzed by intracellular staining 8 h after restimulation. […] Normalized luciferase activity was determined in triplicates.
The CD28 response element (RE/AP)- or NFAT-luciferase (Luc) reporter genes have been described (Coudronniere, N. et al. Proc Natl Acad Sci USA 97, 3394-3399 (2000)). […] The cells were the lysed and Luc activity was quantitated and normalized to the activity of a cotransfected β-galactosidase (β-Gal) reporter gene.
To determine whether ectopic V3 expression also interfered with PKCθ-dependent TCR/CD28 signaling, the effects of V3 on activation of reporter genes and on T cell differentiation into effector Th cells were analyzed. […]

[2] = test system: Naïve CD4+ T cells from B6 mice, Treg (FoxP3+) cells; assay: In vitro Treg (FoxP3+) differentiation of retrovirally transduced CD4+ T cells; assay type: cell-based, mouse; settings: Treg-polarizing conditions (IL-2+TGFβ), GFP+FoxP3+ cells
Protocol: (§1) Naïve CD4+ T cells from B6 mice stimulated with anti-CD3 plus anti-CD28 mAbs and differentiated in vitro under Treg-polarizing conditions (IL-2+TGFβ) were retrovirally transduced with empty pMIG vector, or with the indicated PKCθ V3 vectors. Transduced (GFP+) cells were sorted and FoxP3+ cells were analyzed by intracellular staining.
as §1, with “CD4^+” for “CD4+”, “(GFP+)” for “(GFP+) cells were sorted and”, “intracellular staining 8 hours after restimulation. Right panels represent cumulative data showing percentage of GFP+FoxP3+ cells by intracellular” for “intracellular”

[3] = test system: Th2-mediated lung inflammation; assay: Th2-mediated Ova-induced airway inflammation after adoptive transfer of transduced OT-II Th2 cells; assay type: in vivo, mouse; settings: transferred Th2 cells, aerosolized Ova 3 consecutive days
Description: (FIG. 7A-7D) OT-II CD4^+ T cells stimulated with anti-CD3 plus anti-CD28 mAbs and differentiated in vitro under Th2 (FIG. 7A-7C) or Th1 (FIG. 7D, 7E)-polarizing conditions were retrovitrally transduced with the same PKCθ V3 vectors as in FIG. 6. Sorted GFP^+ populations were adoptively transferred into naïve B6 mice, which were challenged with aerosolized Ova for 3 consecutive days. BAL fluid were obtained 1 d post-challenge and analyzed for total mononuclear cell infiltration (FIG. 7A, 7D) and cytokine expression using IL-4 (FIG. 7B), IL-5 (FIG. 7C) and IFN-γ (FIG. 7E) ELISA.
CD4^+ T cells from OT-II B6 mice were isolated and cultured with plate-bound anti-CD3 (5 μg/ml), soluble anti-CD28 (2.5 μg/ml) and IL-2 (100 U/ml) under Th1 or Th2 polarizing conditions. The cells were retrovirally infected on days 2-4 and cultured for an additional 3 days. GFP^+ cells were sorted, and 1×10^6 cells were injected intravenously into naïve WT B6 mice. One day later, mice received aerosolized Ova (5 mg/ml in 20 ml PBS) for 30 min, once a day for 3 consecutive days, using ultrasonic nebulization. Mice were sacrificed 24 h after the last challenge and assessed for lung inflammation. Collection of BAL fluid and determination of cytokine levels were carried out as described (Salek-Ardakani, S. et al. J Immunol 173, 6440-6447 (2004)).
The above findings were extended to an in vivo antigen-specific inflammatory response in an airway inflammation model, using a T cell adoptive transfer system. Mice receiving OT-II Th2 cells transduced with an empty vector developed an inflammatory response by comparison with PBS-challenged control mice, as evidenced by a significant increase in the number of infiltrating leukocytes in the bronchoalveolar lavages (BAL) fluid (FIG. 7a) and in the levels of signature Th2 cytokines, IL-4 (FIG. 7b) and IL-5 (FIG. 7c).

B1: V3 domain: amino acid 282-379 of human PKCθ with N-terminal Myc tag, expressed from pMIG retroviral vector (protein)
chain: GINQKLMAEALAMIESTQQARCLRDTEQIFREGPVEIGLPCSIKNEARPPCLPTPGKREPQGISWESPLDEVDKMCHLPEPELNKERPSLQIKLKIED
modifications: left off: small tags and cut ends
notes: amino acid 282-379 of human PKCθ with N-terminal Myc tag, expressed from pMIG retroviral vector
[1]; coexpressed at increasing levels together with WT PKCθ
  inhibition of RE/AP reporter gene activity stimulated by WT PKCθ: inhibited in a dose-dependent manner
[1]; expression of the V3 alone
  activation of RE/AP reporter gene: did not activate
[2]
  promotion of Treg differentiation: ~4 fold
[3]
  levels of Th2 cytokines (IL-4, IL-5) in BAL fluid: to basal levels
  levels of infiltrating cells in BAL fluid: to basal levels
